Laboratory results published in PMC5352752, “Discovery and characterization of an F420-dependent glucose-6-phosphate dehydrogenase (Rh-FGD1) from Rhodococcus jostii RHA1” (Applied Microbiology and Biotechnology, 2016).

Target: the molecule itself
Test: SEC; gel permeation analysis in solution, data not shown

B1: F420-dependent glucose-6-phosphate dehydrogenase Rh-FGD1 from Rhodococcus jostii RHA1 (enzyme, UniProt Q0RVH7 1-335, looked up)
chain: MVIKFGYKASAEQFGPRELVELGVLAEAHGMDSATVSDHFQPWRHEGGHAPFSLAWMTAVGERTSRLQLGTSVMTPTFRYNPAVVAQAFATMGCLYPGRIMLGVGTGEALNEIATGFAGEWPEFKERFARLREAVALMRELWLGDRVDFEGNYYKTVGASIYDVPEGGIPVYIAAGGPVVARYAGRSGDGFICTSGKGMELYTEKLMPAVAEGAEKADRDVAEIDKMIEIKISYDTDPELALENTRFWAPLSLTPEQKHSIDDPIEMERAADALPIEQVAKRWIVASDPDEAVAQIRPYLDAGLNHLVFHAPGHDQKRFLELFQRDLAPRLRGLA
notes: each monomer is comprised of residues 1-334; The native enzyme (tag cleaved) was used for crystallization; also called RHA1_RS43115; native Rh-FGD1; source: E. coli C41(DE3), purified (HisTrap, His-SUMO tag cleaved with SUMO protease, second HisTrap, Superdex 200); not shown: His6, N-terminal, cleaved; SUMO, N-terminal, cleaved
stoichiometry N: 2
